# Measured values reported in article PMC3115021, “Dynamics of Cdk1 Substrate Specificity during the Cell Cycle” (Molecular Cell, 2011).
# B1: TOS8: purified yeast protein tested as Cdk1 substrate (protein, UniProt P53147 1-276, looked up)
# Homeobox protein TOS8: MGTSIVNLNQKIELPPIQVLFESLNRENETKPHFEERRLYQPNPSFVPRTNIAVGSPVNPVPVSSPVFFIGPSPQRSIQNHNAIMTQNIRQYPVIYNNNREVISTGERNYIITVGGPPVTSSQPEYEHISTPNFYQEQRLAQPHPVNESMMIGGYTNPQPISISRGKMLSGNISTNSVRGSNNGYSAKEKKHKAHGKRSNLPKATVSILNKWLHEHVNNPYPTVQEKRELLAKTGLTKLQISNWFINARRRKIFSGQNDANNFRRKFSSSTNLAKF
# B2: YOX1: purified yeast protein tested as Cdk1 substrate (protein, UniProt P34161 1-385, looked up)
# Homeobox protein YOX1: MSQETKMLPSLSSLLSGTEISSSPVSPSFTNPRTSFHLDDRGTIKLPPLNTSINRPRSVESALRHTVTSLHENSSAYGDDMLKHTQSDSALSSQLNSSQETVDESHENLLLTPLNSKKRDYSVSSKKNDILTPLSAAKSIIIPSASKEKRRAFAFITHSQETFPKKEPKIDNAPLARRKRRRTSSQELSILQAEFEKCPAPSKEKRIELAESCHMTEKAVQIWFQNKRQAVKRQRIATSKSTTIIQTVSPPSPPLDVHATPLASRVKADILRDGSSCSRSSSSSPLENTPPRPHHSLNRRSSTPSIKRSQALTFHLNPQKKTLTPVKTSPNSRVNKLINSIDHSPSKAKRPVSNPSGSPKRKRKFGFKIVDQQPLKDLDPNAFRG
# B3: STB1: purified yeast protein, Cln2-specific Cdk1 target (protein, UniProt P42845 2-420, looked up)
# Protein STB1: SQPQMSPEKEQELASKILHRAELAQMTRQLKLGLSNVPSTKRKQDSTTKKRSGEDAEDVDEDHKTLLEAISPAKKPLHDDTNKMTVISPVKFVEKPNTPPSSRQRKAEDRSQQIKPRKEDTPSTPRASATPIILPHASSHYQRPHDKNFMTPKRNNNNSSNHSNNNNNIKKKAAGSKDAPQDSDNTAGADLLMYLATSPYNKSSHHGTPMAVRMPTTPRSYHYASQLSLNGNTASTSNDAVRFSHIKPSASSPQSTFKSNLLPNFPDESLMDSPSLYLSNNNGSVQATLSPQQRRKPTTNTLHPPSNVPTTPSRELNGTNFNLLRTPNFNMGDYLHNLFSPSPRVPAQQGASNTSASIPSVPAMVPGSSSNTSAIATAAISSHTTNNFLDMNANGIPLIVGPGTDRIGEGESIDDKLTD
# B4: BOP3: purified yeast protein tested as Cdk1 substrate (protein, UniProt P53958 1-396, looked up)
# Protein BOP3: MSTFNSYSQPKESNDNSHNNVNKSKSLLDIIFGTNVSEWAFSENALMKAMDLKIEQEKTKQQYYKLENLNRSIELFKLASSSGLPINQIHKLFNTDHGVPASSPMKAGGNQPHNNTEGTQSSENLPRLNGSMKSLKPLNMNTVSPTPMSRQPSPYKFPASSSTGGISHSTVTNVQRRANSPARIGASAVAALNDNISIKEEDVARRIPSGTKSQESPLNKKPTSLHSRNLSLPIGKFTNPNIPSTMTSILSFNRDQQQPLSQPLPPPPQQQQDLHTHNLHTIPRKPGMVQKKHRRARSTSSFGVIDLSIIDEAKEKQVQRSPSPIHSNVSVALTSHDKPIESNMKEQPNMLQSVREGRQVHDDLDDRTCSESSSRNESPVRTITKDNSVGKILNST
# B5: MSA1: purified yeast protein tested as Cdk1 substrate (protein, UniProt Q08471 1-629, looked up)
# G1-specific transcription …: MDKSMIKKRGRPPITKDYPNPLQSPMAHSSMQVQKQGPHSFAKPLMKVGQSSPSPNKRRLSIDHHHNLAATTRKGRYRGVLLSTPTKKSSTNGSTPISTPSSNDSYNNTVFSETRKTFLQSSPPIMTSSPAFQKKNDYMFPSQEQFKLSLTITESGKAVIAGSLPFSPSSKSSHLMNNNNKKIMQNEKIHKGSKKNAPKFEKRRILSLLKQMKNEKYCDTDTLPEAPPAKPSRSDIIDTELPTIIETSASPIGSARNNNILLSQPPQSPPSSAQLKPPSTPKSSLQFRMGFTPNVALNSVSLSDTISKSTNAVGASNNNNQNGNSISNIADANTLLTLTNSPGVFLSPRNKMLPKSTTASNEQQQEFVFKFSSGDPLLLTDDADGNWPEMLFNVSNTPRRQKCFNTPPSWINFGSPGLFSPPRSSNVMVNGTTVATASDSGNVHRQLQAQLEAQVQVQSQSNSPTQRQQQQRQFQIPPPHINMNSSPPQINIASPPHQSMSRVSSIYFNKEKTTTGVANMLGNTKSENLQPPANLFTAAHGPSTPRNQEFQLPTLIECTPLIQQTMNGSLGTKYIPGTSISNSATPNLHGFPVGTGKAPSSFDDSLKQNPYSNKQDDARTALKRLIDDQ
# B6: ACE2: purified yeast protein tested as Cdk1 substrate (protein, UniProt P21192 1-770, looked up)
# Metallothionein expression …: MDNVVDPWYINPSGFAKDTQDEEYVQHHDNVNPTIPPPDNYILNNENDDGLDNLLGMDYYNIDDLLTQELRDLDIPLVPSPKTGDGSSDKKNIDRTWNLGDENNKVSHYSKKSMSSHKRGLSGTAIFGFLGHNKTLSISSLQQSILNMSKDPQPMELINELGNHNTVKNNNDDFDHIRENDGENSYLSQVLLKQQEELRIALEKQKEVNEKLEKQLRDNQIQQEKLRKVLEEQEEVAQKLVSGATNSNSKPGSPVILKTPAMQNGRMKDNAIIVTTNSANGGYQFPPPTLISPRMSNTSINGSPSRKYHRQRYPNKSPESNGLNLFSSNSGYLRDSELLSFSPQNYNLNLDGLTYNDHNNTSDKNNNDKKNSTGDNIFRLFEKTSPGGLSISPRINGNSLRSPFLVGTDKSRDDRYAAGTFTPRTQLSPIHKKRESVVSTVSTISQLQDDTEPIHMRNTQNPTLRNANALASSSVLPPIPGSSNNTPIKNSLPQKHVFQHTPVKAPPKNGSNLAPLLNAPDLTDHQLEIKTPIRNNSHCEVESYPQVPPVTHDIHKSPTLHSTSPLPDEIIPRTTPMKITKKPTTLPPGTIDQYVKELPDKLFECLYPNCNKVFKRRYNIRSHIQTHLQDRPYSCDFPGCTKAFVRNHDLIRHKISHNAKKYICPCGKRFNREDALMVHRSRMICTGGKKLEHSINKKLTSPKKSLLDSPHDTSPVKETIARDKDGSVLMKMEEQLRDDMRKHGLLDPPPSTAAHEQNSNRTLSNETDAL
# Experiments:
# Assay in all cases: Quantitative phosphorylation assay of T33-Sic1ΔC constructs and recombinant substrates
# Assay type in all cases: biochemical
# Clb5-Cdk1 = biological target: T1, Clb5-Cdk1 (Saccharomyces cerevisiae, UniProt P00546+P30283); settings: for effect of competitor peptide on Clb5-dependent phosphorylation of Sic1ΔC: synthetic competitor peptide 4 mM, result in words; for kcat/KM, Clb5: Table S2, purified protein substrate, relative values, not divided by [S]
# T1 construct: We purified the four cyclin-Cdk1 complexes from yeast; made in house; host or cells: S. cerevisiae strain DOM0076 (gal-CLB5-TAP, sic1 deleted); Cks1 from bacteria
# Protocol: (§1) For the quantitative phosphorylation assays of T33-Sic1ΔC constructs and recombinant substrates, substrate concentrations were kept in the range of 0.5–2 μM (in the linear [S] versus v0 range, several-fold below the estimated KM value), and initial velocity conditions were defined as an initial substrate turnover of up to 10% of the total turnover. For the steady-state peptide kinetics of the Histone peptide PKTPKKAKKL, a similar assay composition was used as for protein substrates, and phosphocellulose paper was used for the quantification of the phosphorylated substrate. […]
# (§2) similar substrate specificity as the Cln2-Cdk1 version purified using a TAP-tag. N-terminally 6His-tagged recombinant T33-Sic1ΔC constructs and substrates were cloned into the pET28a vector and purified by standard cobalt affinity chromatography and elution with 200 mM imidazole. 6His-Fin1 was purified as described previously (Woodbury and Morgan, 2007). Substrates cloned into the pGEX-4T-1 were purified on glutathione agarose columns using 5 mM reduced glutathione for elution. Cks1 was purified as described previously (Reynard et al., 2000). The optimal working concentration for purified Cks1 was taken as 500 nM based on optimization performed for cyclin-Cdk1 preparations and T33-Sic1ΔC as a substrate.
# (§3) For the quantitative phosphorylation assays of T33-Sic1ΔC constructs and recombinant substrates, substrate concentrations were kept in the range of 0.5-2 μM (in the linear [S] vs v0 range, several-fold below the estimated KM value), and the initial velocity conditions were defined as an initial substrate turnover ranging up to 10% of the total turnover. The latter was estimated by a long-term incubation with excess amounts of cyclin-Cdk1 and 32P-γ-ATP in the standard reaction mixture given below. About 1-10 nM of purified kinase complex was used, reaction aliquots were taken at two or more time points, and the reaction was stopped by SDS-PAGE sample buffer. The relative kcat/KM values for the substrates were calculated as the ratio of v0/[S], which was determined from at least two independent experiments. The basal composition of the assay mixture contained 50 mM Hepes, pH 7.4, 100 mM NaCl, 0.1% NP-40, 20 mM imidazole, 0.1 mg/ml 2HA peptide, 2% glycerol, 2 mM EGTA, 0.2 mg/ml BSA, […], and 500 μM ATP (with added 32P-γ-ATP (Perkin Elmer)).
# (§4) About 1-10 nM of purified kinase complex was used, reaction aliquots were taken at two or more time points, and the reaction was stopped by SDS-PAGE sample buffer. For the steady-state peptide kinetics of the Histone peptide PKTPKKAKKL, a similar assay composition was used as for protein substrates and the standard phosphocellulose method was applied for the quantification of the phosphorylated substrate (Loog and Morgan, 2005). Synthetic peptides as competitor agents were used in 4 mM final concentrations. […]
# Cln2-Cdk1 = biological target: T2, Cln2-Cdk1 (Saccharomyces cerevisiae, UniProt P00546+P20438); settings: for kcat/KM, Cln2: Table S2, purified protein substrate, relative values, not divided by [S]
# T2 construct: We purified the four cyclin-Cdk1 complexes from yeast; made in house; host or cells: S. cerevisiae strain DMY305 (galactose-induced); Cks1 from bacteria
# Protocol: as §1, §2, §3, §4
# Clb2-Cdk1 = biological target: T3, Clb2-Cdk1 (Saccharomyces cerevisiae, UniProt P00546+P24869); settings: Table S2; purified protein substrate; relative values, not divided by [S]
# T3 construct: We purified the four cyclin-Cdk1 complexes from yeast; made in house; host or cells: S. cerevisiae strain DOM0077 (gal-CLB2-TAP, sic1 deleted); Cks1 from bacteria
# Protocol: as §1, §2, §3, §4
# Clb3-Cdk1 = biological target: T4, Clb3-Cdk1 (Saccharomyces cerevisiae, UniProt P00546+P24870); settings: Table S2; purified protein substrate; relative values, not divided by [S]
# T4 construct: We purified the four cyclin-Cdk1 complexes from yeast; made in house; host or cells: S. cerevisiae strain DOM0957 (gal-CLB3-TAP, sic1 deleted); Cks1 from bacteria
# Protocol: as §1, §2, §3, §4
# [1] = synthetic competitor peptide 4 mM
# T1 sequence (P00546 2-298 limits assumed): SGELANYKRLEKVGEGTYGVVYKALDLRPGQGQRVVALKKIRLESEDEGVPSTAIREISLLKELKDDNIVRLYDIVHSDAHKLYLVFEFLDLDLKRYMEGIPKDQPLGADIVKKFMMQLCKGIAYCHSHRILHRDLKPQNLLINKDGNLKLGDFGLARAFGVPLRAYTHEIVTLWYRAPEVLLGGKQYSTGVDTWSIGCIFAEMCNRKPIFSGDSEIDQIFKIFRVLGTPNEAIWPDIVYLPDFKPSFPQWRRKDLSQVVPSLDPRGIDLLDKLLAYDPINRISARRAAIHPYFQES
# T1 sequence (P30283 whole entry partner): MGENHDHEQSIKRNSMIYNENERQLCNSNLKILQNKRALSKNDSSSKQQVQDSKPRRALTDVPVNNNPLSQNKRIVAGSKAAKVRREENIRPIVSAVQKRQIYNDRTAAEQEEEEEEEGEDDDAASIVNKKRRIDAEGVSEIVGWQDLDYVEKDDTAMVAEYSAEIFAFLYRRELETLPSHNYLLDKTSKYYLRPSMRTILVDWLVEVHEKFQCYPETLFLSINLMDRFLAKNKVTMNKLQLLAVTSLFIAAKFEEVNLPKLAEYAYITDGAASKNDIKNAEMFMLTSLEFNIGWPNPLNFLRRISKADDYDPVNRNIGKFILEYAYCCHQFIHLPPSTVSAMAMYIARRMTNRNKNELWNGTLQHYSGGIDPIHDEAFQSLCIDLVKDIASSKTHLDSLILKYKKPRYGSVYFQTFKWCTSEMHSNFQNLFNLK
# T1 sequence (P20486 whole entry partner): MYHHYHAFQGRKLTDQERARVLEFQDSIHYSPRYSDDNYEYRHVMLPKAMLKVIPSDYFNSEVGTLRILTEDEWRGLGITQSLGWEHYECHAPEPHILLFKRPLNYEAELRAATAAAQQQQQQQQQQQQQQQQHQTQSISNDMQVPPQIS
# T4 sequence (P00546 2-298 limits assumed): as the sequence (P00546 2-298 limits assumed) above
# T4 sequence (P24870 whole entry partner): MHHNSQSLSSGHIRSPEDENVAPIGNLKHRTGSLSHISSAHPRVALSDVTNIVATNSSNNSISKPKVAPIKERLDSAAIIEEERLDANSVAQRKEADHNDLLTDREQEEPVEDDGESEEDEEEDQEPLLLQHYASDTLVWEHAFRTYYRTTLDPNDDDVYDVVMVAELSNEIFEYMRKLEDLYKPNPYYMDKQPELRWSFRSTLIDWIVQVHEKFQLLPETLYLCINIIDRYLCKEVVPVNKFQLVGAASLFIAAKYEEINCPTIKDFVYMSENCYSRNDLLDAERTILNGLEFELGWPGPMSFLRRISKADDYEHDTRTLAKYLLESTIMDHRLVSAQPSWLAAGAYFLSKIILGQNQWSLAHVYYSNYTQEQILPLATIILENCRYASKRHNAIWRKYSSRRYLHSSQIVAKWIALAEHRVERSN
# T4 sequence (P20486 whole entry partner): as the sequence (P20486 whole entry partner) above
# T2 sequence (P00546 2-298 limits assumed): as the sequence (P00546 2-298 limits assumed) above
# T2 sequence (P20438 whole entry partner): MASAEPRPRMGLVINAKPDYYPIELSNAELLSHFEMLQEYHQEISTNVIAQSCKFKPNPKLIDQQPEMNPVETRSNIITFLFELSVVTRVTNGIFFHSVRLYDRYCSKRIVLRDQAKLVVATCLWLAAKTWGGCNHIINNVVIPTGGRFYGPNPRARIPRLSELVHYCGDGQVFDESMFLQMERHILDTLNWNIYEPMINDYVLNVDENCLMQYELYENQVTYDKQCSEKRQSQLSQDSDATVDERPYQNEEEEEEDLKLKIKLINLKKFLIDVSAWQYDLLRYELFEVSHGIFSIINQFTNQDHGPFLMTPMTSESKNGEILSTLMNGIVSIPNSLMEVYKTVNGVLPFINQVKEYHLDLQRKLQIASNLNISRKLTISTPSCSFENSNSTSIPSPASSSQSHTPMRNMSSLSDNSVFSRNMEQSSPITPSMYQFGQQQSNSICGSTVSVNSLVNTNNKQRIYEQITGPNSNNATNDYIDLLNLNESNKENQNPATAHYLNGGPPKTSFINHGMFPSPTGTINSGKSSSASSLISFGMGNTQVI
# T2 sequence (P20486 whole entry partner): as the sequence (P20486 whole entry partner) above
# T3 sequence (P00546 2-298 limits assumed): as the sequence (P00546 2-298 limits assumed) above
# T3 sequence (P24869 2-491 partner limits assumed): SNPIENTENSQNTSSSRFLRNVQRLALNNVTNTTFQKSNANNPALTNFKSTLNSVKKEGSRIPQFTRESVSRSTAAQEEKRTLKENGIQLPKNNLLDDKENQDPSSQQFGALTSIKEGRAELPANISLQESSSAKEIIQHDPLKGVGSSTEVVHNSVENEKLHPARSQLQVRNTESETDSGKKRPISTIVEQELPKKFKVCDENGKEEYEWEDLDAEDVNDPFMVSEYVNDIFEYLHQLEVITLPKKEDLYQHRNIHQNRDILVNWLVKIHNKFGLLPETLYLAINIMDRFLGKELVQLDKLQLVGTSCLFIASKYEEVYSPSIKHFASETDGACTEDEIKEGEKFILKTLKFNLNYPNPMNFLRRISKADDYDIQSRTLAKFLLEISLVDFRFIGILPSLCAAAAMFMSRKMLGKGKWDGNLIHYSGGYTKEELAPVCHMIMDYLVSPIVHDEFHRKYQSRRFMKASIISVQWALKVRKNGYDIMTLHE
# T3 sequence (P20486 whole entry partner): as the sequence (P20486 whole entry partner) above
Molecule,effect of competitor peptide on Clb5-dependent phosphorylation of Sic1ΔC (Clb5-Cdk1),effect of competitor peptide on Cln2-dependent phosphorylation of Sic1ΔC (Cln2-Cdk1; [1]),"effect of competitor peptide on Cln2 docking / Cln2-dependent phosphorylation of Sic1ΔC (Cln2-Cdk1; synthetic competitor peptide 4 mM, result in words)","kcat/KM, Clb5 (Clb5-Cdk1)","kcat/KM, Clb2 (Clb2-Cdk1)","kcat/KM, Cln2 (Cln2-Cdk1)","kcat/KM, Clb3 (Clb3-Cdk1)"
"RVNAIAFPT [AXL peptide, similar peptide in which the arginine of the RXL motif was replaced with alanine]",only the RXL peptide reduces the specificity of Clb5,3- to 4 fold,–,–,–,–,–
VLLPPSRPTS [LP peptide],–,–,competitive inhibitor of the docking,–,–,–,–
RTT109: purified yeast protein tested as Cdk1 substrate,–,–,–,0.010 relative units,0.080 relative units,0.067 relative units,0.027 relative units
RVNRILFPT [synthetic peptide based on the RXL2 motif of Sic1],had an effect on Clb5-dependent phosphorylation,3- to 4 fold,–,–,–,–,–
B1,–,–,–,0.069 relative units,0.254 relative units,2.830 relative units,0.276 relative units
B2,–,–,–,0.244 relative units,4.536 relative units,0.584 relative units,2.094 relative units
B3,–,–,–,0.191 relative units,0.878 relative units,2.011 relative units,0.622 relative units
B4,–,–,–,0.027 relative units,0.109 relative units,0.521 relative units,0.101 relative units
B5,–,–,–,0.024 relative units,0.034 relative units,0.157 relative units,0.043 relative units
B6,–,–,–,0.004 relative units,0.069 relative units,0.025 relative units,0.029 relative units
